Molecular target: the molecule itself
Assay: two-hybrid; mammalian two-hybrid (CheckMate, Promega) in HeLa cells; GAL4 BD fusion (pBIND) and VP16 AD fusion (pACT), 80 fmol each, with 160 fmol pG5LUC; Dual-Luciferase assay

B1: PHOX2A fused to GAL4 BD or VP16 AD (natural protein)
chain: not shown
notes: PHOX2A, human; Each copy carries either GAL4 BD or VP16 AD; also called GAL4 BD-PHOX2A; VP16 AD-PHOX2A; source: mammalian two-hybrid fusion, transfected HeLa cells
luciferase activity relative to that of the PHOX2B fusion constructs: > 2 fold

Reference: article PMC4933246, “Alanine Expansions Associated with Congenital Central Hypoventilation Syndrome Impair PHOX2B Homeodomain-mediated Dimerization and Nuclear Import*” (The Journal of Biological Chemistry, 2016)
